From patent US20210063414A1, “METHODS FOR PREVENTING AND/OR TREATING BONE LOSS CONDITIONS BY MODULATING IRISIN” (Dana-Farber Cancer Institute, Inc., priority 2018, published 2021)

Target: T1, MLO-Y4 cell surface proteins (Mus musculus, UniProt E9Q9D8)
T1 construct: endogenous in cells; host or cells: MLO-Y4
T1 sequence (E9Q9D8 1-996): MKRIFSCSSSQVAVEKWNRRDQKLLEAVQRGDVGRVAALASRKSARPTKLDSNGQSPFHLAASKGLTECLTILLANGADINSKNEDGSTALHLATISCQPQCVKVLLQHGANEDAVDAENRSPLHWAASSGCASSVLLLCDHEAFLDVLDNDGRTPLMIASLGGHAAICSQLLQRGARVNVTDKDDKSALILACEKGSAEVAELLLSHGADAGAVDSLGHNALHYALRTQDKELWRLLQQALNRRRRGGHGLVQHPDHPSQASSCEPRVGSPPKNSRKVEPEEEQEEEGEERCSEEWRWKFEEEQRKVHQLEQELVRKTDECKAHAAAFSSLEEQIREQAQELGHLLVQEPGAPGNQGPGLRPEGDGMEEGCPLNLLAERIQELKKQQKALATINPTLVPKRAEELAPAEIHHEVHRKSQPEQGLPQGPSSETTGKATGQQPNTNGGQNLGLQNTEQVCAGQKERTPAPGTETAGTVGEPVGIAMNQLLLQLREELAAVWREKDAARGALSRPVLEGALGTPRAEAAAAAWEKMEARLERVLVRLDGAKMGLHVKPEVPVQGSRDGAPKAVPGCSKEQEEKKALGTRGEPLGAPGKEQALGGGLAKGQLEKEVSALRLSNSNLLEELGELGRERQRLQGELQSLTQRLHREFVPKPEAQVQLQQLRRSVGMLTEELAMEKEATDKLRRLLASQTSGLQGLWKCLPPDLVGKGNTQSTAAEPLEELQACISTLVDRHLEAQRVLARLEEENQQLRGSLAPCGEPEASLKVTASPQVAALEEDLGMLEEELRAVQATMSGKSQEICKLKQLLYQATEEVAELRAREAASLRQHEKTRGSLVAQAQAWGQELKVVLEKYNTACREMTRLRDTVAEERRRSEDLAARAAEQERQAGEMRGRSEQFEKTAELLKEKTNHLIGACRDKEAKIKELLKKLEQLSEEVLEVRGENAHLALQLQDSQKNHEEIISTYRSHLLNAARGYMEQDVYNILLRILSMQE
Test: Crosslinking/co-immunoprecipitation/mass spectrometry (TMT quantitative proteomics) to identify irisin receptors
Format: binding
Conditions: co-precipitated protein Ankrd35 (E9Q9D8_MOUSE)
How it was run: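 Mouse MLO-Y4 cells were switched to serum-free FreeStyle medium for 4 h, chilled, then exposed to 10 nM His-tagged irisin (or adipsin as control) for 20 min. Cells were crosslinked with 1.5 mM DTSSP (30 min, ice), and bound proteins were pulled down on Ni-NTA and eluted with 250 mM imidazole. Eluates were separated by SDS-PAGE, trypsin-digested in gel, TMT 6-plex labelled and quantified by MS3-based LC-MS/MS on an Orbitrap Fusion Lumos.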

B1: irisin: secreted cleaved form of FNDC5; recombinant human/mouse irisin with C-terminal his tag produced in HEK293 cells (protein)
chain: DSPSAPVNVTVRHLKANSAVVSWDVLEDEVVIGFAISQQKKDVRMLRFIQEVNTTTRSCALWDLEEDTEYIVHVQAISIQGQSPASEPVLFKTPREAEKMASKNKDEVTMKE
modifications: left off: small tags and cut ends
notes: secreted cleaved form of FNDC5; recombinant human/mouse irisin with C-terminal his tag produced in HEK293 cells
- TMT signal-to-noise ratio: 3.32
- irisin/adipsin TMT signal-to-noise ratio: 0.011
